Source: patent publication US7301069B2, “Methods of protecting plants from pathogenic fungi and nematodes” (Pioneer Hi-Bred International, Inc., priority 2004, dated 2007)

Experiments:
Verticillium dahliae = assay: Anti-fungal bioassay (primary screening); format: cell-based; parameters: key: 0 = no effect; 1 = partial growth inhibition; 2 = strong inhibition; conditions: protease-cleaved fusion protein samples, scored after 18 to 48 hours
Protocol: (§1) The same polypeptides of Example 1 which were recombinantly expressed in E. Coli were also screened in an anti-fungal bioassay against five selected fungal pathogens.
(§2) All fungal strains were grown and maintained on potato dextrose agar (PDA) plates, in a 30° C. incubator. These plates were kept in smaller secondary containers (per fungal strain), with moist paper towels to maintain high humidity. Spores were harvested in a quarter strength of potato dextrose broth (PDB) after about 2 weeks of growth, counted using a hemacytometer, and subsequently stored in small aliquots at −80° C.
(§3) The frozen spores were diluted to the working concentration (determined empirically for each fungal strain), in a quarter strength of PDB, and 50 μL (per well) were added to sterile, flat-bottomed 96-well assay plates. The assay plates were incubated in the humid boxes at room temperature for 5-7 hours to allow the spores to germinate. Serial dilutions of purified, protease-cleaved fusion protein samples were then added to the assay plates, in 50 μL volumes, for a final assay volume of 100 μL per well. The assay plates were allowed to incubate overnight, in a humid box, at 30° C. Antifungal activity was scored after 18 to 48 hours, depending upon the strain of fungus.

Fusarium oxysporum = assay: Anti-fungal bioassay (primary screening); format: cell-based; parameters: key: 0 = no effect; 1 = partial growth inhibition; 2 = strong inhibition; conditions: protease-cleaved fusion protein samples, scored after 18 to 48 hours
Protocol: as §1, §2, §3

Alternaria brassicicola = assay: Anti-fungal bioassay (primary screening); format: cell-based; parameters: key: 0 = no effect; 1 = partial growth inhibition; 2 = strong inhibition; conditions: protease-cleaved fusion protein samples, scored after 18 to 48 hours
Protocol: as §1, §2, §3

Botrytis cinerea = assay: Anti-fungal bioassay (primary screening); format: cell-based; parameters: key: 0 = no effect; 1 = partial growth inhibition; 2 = strong inhibition; conditions: protease-cleaved fusion protein samples, scored after 18 to 48 hours
Protocol: as §1, §2, §3

Fusarium verticillioides = assay: Anti-fungal bioassay (primary screening); format: cell-based; parameters: key: 0 = no effect; 1 = partial growth inhibition; 2 = strong inhibition; conditions: protease-cleaved fusion protein samples, scored after 18 to 48 hours
Protocol: as §1, §2, §3

C. elegans = C. elegans feeding bioassay; format: in vivo, Caenorhabditis elegans; conditions: cleaved peptides; concentrations based on Bradford (BSA standard), assume 100% cleavage of the MBP-Kistrin fusion
Protocol: A number of polypeptides were recombinantly expressed in E. coli and then screened in a nematode bioassay.
C. elegans feeding bioassays. Screening was performed in high throughput using E. coli expressed material, corresponding to the predicted mature regions of various small peptides. Expression of biologically functional polypeptides involved producing a fusion protein that included a maltose-binding protein (MBP) and a polypeptide of interest and subsequently cleaving the fusion protein at a protease recognition sequence to release the peptide of interest. DNA encoding the polypeptide of interest was fused to the C-terminus of the MelE gene in the E. coli expression vector pMAL (New England Biolabs; see, Guan et al., Gene 67:21-30 (1987); and Maina et al., Gene 74:365-73 (1988)). Sequences encoding the cleavage site of proteases Factor Xa or Genenase I were incorporated between the genes of MBP and the polypeptide of interest. A histidine tag was also added to the N-terminus of MBP.
The constructed plasmid vector was transformed into cells of E. coli XL-1 Blue and transformants were grown in 2YT medium containing 50 μg/mL carbenicillin to a cell density of OD600=0.6-0.9. Expression of the fusion protein was induced by addition of IPTG into the culture to a final concentration of 1 mM. Cells were grown for 4-16 hours to saturation before harvesting. Cells were harvested by centrifugation and then lysed with B-PER reagent (Pierce Chemicals, Rockford, Ill.) to obtain the fraction of soluble proteins. The fusion protein was purified from the cell lysate supernatant utilizing the histidine tag by incubating the cell lysate with Ni-NTA agarose resins for 20 minutes to 1 hour. The resins were washed with Tris buffer to remove all unbound proteins. Two-mercaptoethanol (10 mM) was included in the lysis and washing buffers to allow partial refolding of the proteins. Elution of the bound fusion protein was performed with buffer containing 20-40 mM […]. To release the polypeptide of interest, the purified fusion protein was incubated with Factor Xa or Genease I (RT, 8-24 hours). The cleaved protein sample was then used in nematode activity assays.
Hit characterization. Approximate IC50's (in μg/mL) for 4 hits determined from C. elegans bioassay using cleaved peptides. Concentrations were determined based on Bradford (BSA standard) and assume 100% cleavage of the MBP-Kistrin fusion.

Molecule	Antifungal score, Verticillium dahliae (Verticillium dahliae)	Antifungal score, Fusarium oxysporum (Fusarium oxysporum)	Antifungal score, Alternaria brassicicola (Alternaria brassicicola)	Antifungal score, Botrytis cinerea (Botrytis cinerea)	Antifungal score, Fusarium verticillioides (Fusarium verticillioides)	Approximate IC50 from C. elegans bioassay (C. elegans) [µg/mL]
Kis5: Kistrin polypeptide of SEQ ID NO: 4 from Picea mariana (black spruce), predicted mature region, recombinantly expressed in E. coli as cleaved MBP fusion (protein, listed as Picea mariana, PEPTIDE (0)...(0) Kis5 mature peptide) GSLRPSECGQRCSYRCSATSHKKPCMFFCQKCCAKCLCVPPGTFGNKQVCPCYNNWKTQQGGPKCP	2	1	0	0	0	75
Kis10: Kistrin polypeptide of SEQ ID NO: 10 from Petunia x hybrida, predicted mature region, recombinantly expressed in E. coli as cleaved MBP fusion (protein, Petunia x hybrida; PEPTIDE (0)...(0) Kis10 mature peptide) GSLKPSQCLPQCTRRCSQTQYHNACMLFCQKCCNKCLCVPPGFYGNKGVCPCYNNWKTKEGGPKCP	0	0	0	0	0	30
Kis2: Kistrin polypeptide of SEQ ID NO: 1 from Arabidopsis thaliana, predicted mature region, recombinantly expressed in E. coli as cleaved MBP fusion (protein, listed as Arabidopsis thaliana, PEPTIDE (0)...(0) Kis2 mature peptide) GKLKPQQCNSKCSFRCSATSHKKPCMFFCLKCCKKCLCVPPGTFGNKQTCPCYNNWKTKEGRPKCP	0	0	0	0	0	15
Kis6: Kistrin polypeptide of SEQ ID NO: 7 from Arabidopsis thaliana, predicted mature region, recombinantly expressed in E. coli as cleaved MBP fusion (protein, listed as Arabidopsis thaliana, PEPTIDE (0)...(0) Kis6 mature peptide) GYAKKIDCGSACVARCRLSRRPRLCHRACGTCCYRCNCVPPGTYGNYDKCQCYASLTTHGGRRKCP	1	0	0	0	0	150
